Values belong to the substance of their own block, whether it stands above or below them.
What was measured:
[1] = molecular target: GIT mucin; assay: specificity/enzyme activity assay, GIT mucin-coated plate (negative control), substrate in PBS pH 7.2; supernatant diluted 1:2
[2] = molecular target: CEA (carcinoembryonic antigen) (UniProt P06731); assay: specificity/enzyme activity assay, CEA-coated plate, substrate in 0.2 M sodium acetate buffer + 0.01% BSA pH 5; supernatant concentrated
[3] = molecular target: CEA (carcinoembryonic antigen) (UniProt P06731); assay: specificity/enzyme activity assay, CEA-coated plate, substrate in PBS pH 7.2; supernatant concentrated
[4] = molecular target: CEA (carcinoembryonic antigen) (UniProt P06731); assay: specificity/enzyme activity assay, CEA-coated plate, substrate in 0.2 M sodium acetate buffer + 0.01% BSA pH 5; supernatant diluted 1:32
[5] = molecular target: GIT mucin; assay: specificity/enzyme activity assay, GIT mucin-coated plate (negative control), substrate in PBS pH 7.2; supernatant diluted 1:16
[6] = molecular target: CEA (carcinoembryonic antigen) (UniProt P06731); assay: specificity/enzyme activity assay, CEA-coated plate, substrate in 0.2 M sodium acetate buffer + 0.01% BSA pH 5; supernatant diluted 1:2
[7] = molecular target: GIT mucin; assay: specificity/enzyme activity assay, GIT mucin-coated plate (negative control), substrate in PBS pH 7.2; supernatant diluted 1:128
[8] = molecular target: CEA (carcinoembryonic antigen) (UniProt P06731); assay: specificity/enzyme activity assay, CEA-coated plate, substrate in 0.2 M sodium acetate buffer + 0.01% BSA pH 5; supernatant diluted 1:4
[9] = molecular target: GIT mucin; assay: specificity/enzyme activity assay, GIT mucin-coated plate (negative control), substrate in PBS pH 7.2; supernatant diluted 1:8
[10] = molecular target: GIT mucin; assay: specificity/enzyme activity assay, GIT mucin-coated plate (negative control), substrate in PBS pH 7.2; supernatant diluted 1:4
[11] = molecular target: CEA (carcinoembryonic antigen) (UniProt P06731); assay: specificity/enzyme activity assay, CEA-coated plate, substrate in 0.2 M sodium acetate buffer + 0.01% BSA pH 5; supernatant diluted 1:8
[12] = molecular target: GIT mucin; assay: specificity/enzyme activity assay, GIT mucin-coated plate (negative control), substrate in PBS pH 7.2; supernatant diluted 1:32
[13] = molecular target: GIT mucin; assay: specificity/enzyme activity assay, GIT mucin-coated plate (negative control), substrate in PBS pH 7.2; supernatant concentrated
[14] = molecular target: CEA (carcinoembryonic antigen) (UniProt P06731); assay: specificity/enzyme activity assay, CEA-coated plate, substrate in 0.2 M sodium acetate buffer + 0.01% BSA pH 5; supernatant diluted 1:64
[15] = molecular target: GIT mucin; assay: specificity/enzyme activity assay, GIT mucin-coated plate (negative control), substrate in PBS pH 7.2; supernatant diluted 1:64
[16] = molecular target: CEA (carcinoembryonic antigen) (UniProt P06731); assay: specificity/enzyme activity assay, CEA-coated plate, substrate in PBS pH 7.2; supernatant diluted 1:64
[17] = molecular target: CEA (carcinoembryonic antigen) (UniProt P06731); assay: specificity/enzyme activity assay, CEA-coated plate, substrate in PBS pH 7.2; supernatant diluted 1:32
[18] = molecular target: CEA (carcinoembryonic antigen) (UniProt P06731); assay: specificity/enzyme activity assay, CEA-coated plate, substrate in PBS pH 7.2; supernatant diluted 1:16
[19] = molecular target: CEA (carcinoembryonic antigen) (UniProt P06731); assay: competitive ELISA on CEA-coated plates; competitor murine MAb BW 431/26 at 5 ng/ml, detected with goat anti-mouse Ig-alkaline phosphatase
[20] = molecular target: CEA (carcinoembryonic antigen) (UniProt P06731); assay: specificity/enzyme activity assay, CEA-coated plate, substrate in PBS pH 7.2; supernatant diluted 1:8
[21] = molecular target: CEA (carcinoembryonic antigen) (UniProt P06731); assay: specificity/enzyme activity assay, CEA-coated plate, substrate in 0.2 M sodium acetate buffer + 0.01% BSA pH 5; supernatant diluted 1:16
[22] = molecular target: CEA (carcinoembryonic antigen) (UniProt P06731); assay: specificity/enzyme activity assay, CEA-coated plate, substrate in PBS pH 7.2; supernatant diluted 1:128
[23] = molecular target: CEA (carcinoembryonic antigen) (UniProt P06731); assay: specificity/enzyme activity assay, CEA-coated plate, substrate in 0.2 M sodium acetate buffer + 0.01% BSA pH 5; supernatant diluted 1:128
[24] = molecular target: CEA (carcinoembryonic antigen) (UniProt P06731); assay: specificity/enzyme activity assay, CEA-coated plate, substrate in PBS pH 7.2; supernatant diluted 1:2
[25] = molecular target: CEA (carcinoembryonic antigen) (UniProt P06731); assay: specificity/enzyme activity assay, CEA-coated plate, substrate in PBS pH 7.2; supernatant diluted 1:4

UniProt P06731, sequence (P06731 35-685 limits assumed): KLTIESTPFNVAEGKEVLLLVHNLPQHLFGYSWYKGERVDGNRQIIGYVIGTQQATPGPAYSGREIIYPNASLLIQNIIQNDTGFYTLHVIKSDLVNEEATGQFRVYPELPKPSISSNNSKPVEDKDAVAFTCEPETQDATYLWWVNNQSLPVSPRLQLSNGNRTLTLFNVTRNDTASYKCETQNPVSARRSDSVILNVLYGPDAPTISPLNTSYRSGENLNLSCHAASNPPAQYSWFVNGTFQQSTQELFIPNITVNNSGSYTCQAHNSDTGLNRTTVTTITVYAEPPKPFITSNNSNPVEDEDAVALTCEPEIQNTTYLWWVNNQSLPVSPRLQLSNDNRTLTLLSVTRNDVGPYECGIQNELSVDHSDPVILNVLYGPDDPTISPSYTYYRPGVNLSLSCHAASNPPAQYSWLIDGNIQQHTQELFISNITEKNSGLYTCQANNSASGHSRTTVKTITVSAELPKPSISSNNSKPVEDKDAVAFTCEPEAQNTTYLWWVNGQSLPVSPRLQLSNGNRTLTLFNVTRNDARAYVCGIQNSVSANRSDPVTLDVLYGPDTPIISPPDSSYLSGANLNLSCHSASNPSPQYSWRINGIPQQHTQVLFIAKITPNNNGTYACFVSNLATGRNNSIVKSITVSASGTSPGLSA

fluorescence of 4-methylumbelliferol liberated by plate-bound fusion protein [1]: 93.4 | fluorescence of 4-methylumbelliferol liberated by plate-bound fusion protein [2]: 9120 | fluorescence of 4-methylumbelliferol liberated by plate-bound fusion protein [3]: 2720 | fluorescence of 4-methylumbelliferol liberated by plate-bound fusion protein [4]: 853 | fluorescence of 4-methylumbelliferol liberated by plate-bound fusion protein [5]: 53.7 | fluorescence of 4-methylumbelliferol liberated by plate-bound fusion protein [6]: 7680 | fluorescence of 4-methylumbelliferol liberated by plate-bound fusion protein [7]: 47.5 | fluorescence of 4-methylumbelliferol liberated by plate-bound fusion protein [8]: 4660 | fluorescence of 4-methylumbelliferol liberated by plate-bound fusion protein [9]: 60.7 | fluorescence of 4-methylumbelliferol liberated by plate-bound fusion protein [10]: 73.4 | fluorescence of 4-methylumbelliferol liberated by plate-bound fusion protein [11]: 2930 | fluorescence of 4-methylumbelliferol liberated by plate-bound fusion protein [12]: 40.4 | fluorescence of 4-methylumbelliferol liberated by plate-bound fusion protein [13]: 116 | fluorescence of 4-methylumbelliferol liberated by plate-bound fusion protein [14]: 425 | fluorescence of 4-methylumbelliferol liberated by plate-bound fusion protein [15]: 48.2 | fluorescence of 4-methylumbelliferol liberated by plate-bound fusion protein [16]: 99.3 | fluorescence of 4-methylumbelliferol liberated by plate-bound fusion protein [17]: 168 | fluorescence of 4-methylumbelliferol liberated by plate-bound fusion protein [18]: 332 | molar excess of competitor at 50% inhibition [19]: 200 molar excess | fluorescence of 4-methylumbelliferol liberated by plate-bound fusion protein [20]: 618 | fluorescence of 4-methylumbelliferol liberated by plate-bound fusion protein [21]: 1660 | fluorescence of 4-methylumbelliferol liberated by plate-bound fusion protein [22]: 57.9 | fluorescence of 4-methylumbelliferol liberated by plate-bound fusion protein [23]: 192 | fluorescence of 4-methylumbelliferol liberated by plate-bound fusion protein [24]: 2140 | fluorescence of 4-methylumbelliferol liberated by plate-bound fusion protein [25]: 1200
Substance: 431/26 hum VH huβGlc 1H fusion protein (from UniProt P01860 1-98; P01860 99-115; P08236 23-651)

molar excess of competitor at 50% inhibition [19]: 200 molar excess
Substance: humanized MAb BW 431/26 (antibody)
